The subject of the experiment is S. aureus. The experiment is described as follows: Proteinase K neutralization of lysostaphin activity in vitro. Format: cell-based. Particulars: 10^5 S. aureus in PBS; lysostaphin 10 mcg and/or 10 mg/ml Proteinase K; 20 minutes at room temperature. As to the method: Lysostaphin (10 mcg) was added to some samples of 10^5 S. aureus in PBS in the presence or absence of 10 mg/ml Proteinase K. The samples were incubated for 20 minutes at room temperatures and then 100 microliter aliquots were plated on blood agar.

B1: Proteinase K: protease used at 10 mg/ml to neutralize lysostaphin (protein, UniProt P06873 106-384, looked up)
Proteinase K: AAQTNAPWGLARISSTSPGTSTYYYDESAGQGSCVYVIDTGIEASHPEFEGRAQMVKTYYYSSRDGNGHGTHCAGTVGSRTYGVAKKTQLFGVKVLDDNGSGQYSTIIAGMDFVASDKNNRNCPKGVVASLSLGGGYSSSVNSAAARLQSSGVMVAVAAGNNNADARNYSPASEPSVCTVGASDRYDRRSSFSNYGSVLDIFGPGTSILSTWIGGSTRSISGTSMATPHVAGLAAYLMTLGKTTAASACRYIADTANKGDLSNIPFGTVNLLAYNNYQA
With B1, the “CFUs Recovered” value was 10^5 CFUs.

These data come from patent publication US20030211995A1, “Methods and formulations for eradicating or alleviating staphylococcal nasal colonization using lysostaphin” (priority 2001, published 2003).
